Substrate in this data set: O=[N+]([O-])c1ccc(O)cc1
The data set is described as follows: cells, lysate or membranes named. The note with it: other: Lineweaver-Burk plot; rat liver microsomes; pH 7.4.

Experimental: The rats were fasted for 12 h with free access to water and then sacrificed by cervical dislocation. The liver was removed promptly and washed with ice-cold physiological saline solution to yellowish brown. […] The liver homogenate solution was centrifuged at 4 °C for 20 min at 12,000 r·min^−1 and supernatant fraction was reserved. The supernatant per millilitre was added with 0.1 mL CaCl2 (88 mM), gently shaken and kept at 0 to 4 °C for 5 min. The mixed solution was transferred to centrifuge tubes and centrifuged at 4 °C for 30 min at 15,000 r·min^−1. […] Protein concentration of the microsomes was determined by the method of Bradford. […]
The apparent Km (Michaelis constant) value was calculated according to the Michaelis-Menten equation and Lineweaver-Burk plot.
Group 1 (normal control) was added with phosphate buffer, group 2 (flavonoids reagent group) were added with flavonoids, and group 3 was given clomethiazole as positive control. […] The concentrations of probe substrate metabolites were calculated from the standard curves. The percentage of inhibition was calculated using the formula: %Inhibition = ((A0 − A1)/A0) × 100%, in which A0 was the concentration of probe substrate metabolite of group 1 and A1 was the concentration of probe substrate metabolite of group 2 and 3. The IC50 values were calculated based on the concentration-effect linear regression curve.

B1: CYP2E1 (Rattus norvegicus) (protein)
chain: MAVLGITIALLVWVATLLVISIWKQIYNSWNLPPGPFPLPILGNIFQLDLKDIPKSFTKLAKRFGPVFTLHLGSRRIVVLHGYKAVKEVLLNHKNEFSGRGDIPVFQEYKNKGIIFNNGPTWKDVRRFSLSILRDWGMGKQGNEARIQREAQFLVEELKKTKGQPFDPTFLIGCAPCNVIADILFNKRFDYNDKKCLRLMSLFNENFYLLSTPWIQLYNNFADYLRYLPGSHRKIMKNVSEIKQYTLEKAKEHLQSLDINCARDVTDCLLIEMEKEKHSQEPMYTMENVSVTLADLFFAGTETTSTTLRYGLLILMKYPEIEEKLHEEIDRVIGPSRVPAVRDRLDMPYMDAVVHEIQRFINLVPSNLPHEATRDTVFQGYVIPKGTVVIPTLDSLLYDSHEFPDPEKFKPEHFLNENGKFKYSDYFKAFSAGKRVCVGEGLARMELFLLLSAILQHFNLKSLVDPKDIDLSPVTVGFGSIPPQFKLCVIPRS
As for B1, the Km came to 90.92 µM.

These data come from article PMC6273018, “Effects of Flavonoids in Lysimachia clethroides Duby on the Activities of Cytochrome P450 CYP2E1 and CYP3A4 in Rat Liver Microsomes” (Molecules, 2016).
